Source: publication doi:10.1101/2022.07.31.502239

Target: T1, mmLRRC8A with C-terminal EGFP and HA-tag (Mus musculus), Q80WG5
T1 chain: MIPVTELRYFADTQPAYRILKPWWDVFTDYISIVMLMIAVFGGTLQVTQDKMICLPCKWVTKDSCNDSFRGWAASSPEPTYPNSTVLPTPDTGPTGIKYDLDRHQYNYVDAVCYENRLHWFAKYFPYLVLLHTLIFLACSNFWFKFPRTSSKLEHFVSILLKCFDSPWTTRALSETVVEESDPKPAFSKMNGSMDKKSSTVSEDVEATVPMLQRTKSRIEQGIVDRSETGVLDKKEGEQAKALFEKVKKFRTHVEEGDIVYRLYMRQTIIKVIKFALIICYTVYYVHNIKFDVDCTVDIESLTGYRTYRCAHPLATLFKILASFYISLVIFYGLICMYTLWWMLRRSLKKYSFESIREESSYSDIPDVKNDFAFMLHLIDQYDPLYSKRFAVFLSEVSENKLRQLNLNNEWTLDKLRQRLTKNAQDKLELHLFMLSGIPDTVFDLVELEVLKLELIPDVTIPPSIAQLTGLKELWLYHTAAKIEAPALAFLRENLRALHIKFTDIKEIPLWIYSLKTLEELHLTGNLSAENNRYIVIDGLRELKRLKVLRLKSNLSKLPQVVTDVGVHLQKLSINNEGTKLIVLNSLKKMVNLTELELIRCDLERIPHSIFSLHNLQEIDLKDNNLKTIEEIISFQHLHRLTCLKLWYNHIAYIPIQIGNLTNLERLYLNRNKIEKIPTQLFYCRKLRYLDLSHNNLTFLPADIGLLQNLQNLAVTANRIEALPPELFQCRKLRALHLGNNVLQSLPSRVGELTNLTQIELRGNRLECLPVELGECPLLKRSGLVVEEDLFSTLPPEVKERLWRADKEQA
Assay: single molecule pulldown with stepwise photobleaching subunit counting
Conditions: remark: other sources report otherwise

B1: mmLRRC8A with C-terminal EGFP and HA-tag, Q80WG5 1-810 (natural protein)
chain: T1 chain
In the case of B1, the stoichiometry N is reported as 6.
